Target: human GABAA receptor β3 subunit (human, UniProt P28472, N-linked glycans at Asn80 and Asn149)
Experiment: cryo-EM structure

human GABAA receptor β3 subunit, sequence (P28472 26-473): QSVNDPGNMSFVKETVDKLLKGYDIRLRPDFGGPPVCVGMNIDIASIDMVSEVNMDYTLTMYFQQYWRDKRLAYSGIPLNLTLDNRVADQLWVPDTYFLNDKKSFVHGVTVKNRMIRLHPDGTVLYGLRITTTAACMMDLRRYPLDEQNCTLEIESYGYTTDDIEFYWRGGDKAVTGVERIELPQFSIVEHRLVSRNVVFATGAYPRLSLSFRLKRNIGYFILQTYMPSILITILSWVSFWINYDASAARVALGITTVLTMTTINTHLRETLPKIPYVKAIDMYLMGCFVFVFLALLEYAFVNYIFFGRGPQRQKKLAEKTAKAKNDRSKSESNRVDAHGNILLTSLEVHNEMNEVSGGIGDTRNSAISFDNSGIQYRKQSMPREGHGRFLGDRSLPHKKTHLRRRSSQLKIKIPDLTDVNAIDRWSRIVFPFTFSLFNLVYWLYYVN

B1: megabody MbNb38^cHopQ (VHH)
VHH: QVQLQESGGGLVQAGGSLRVSCAASGRTFTAYIMAWFRQAPGKEREFLAAMDQGRIQYYGDSVRGRFTISRDYAKNSVDLQLDGLRPEDTAVYYCAAGAGFWGLRTASSYHYWGQGTQVTVSS
- binding result: binds

— PMC6364807 (Nature, 2019)
